B1: ZNF207 (parent)
chain: FPSAGQAQAAVQGPVGTDFKPLNS
B2: PLAGL1 (parent)
chain: DPNKMAFGCEECGKKYNTMLGYKR

Variants of: B1
Test: protein stability index of a GFP-peptide fusion (GPS, HEK-293T) (PSI 1-6); higher = more stable
Details: c terminus: a fixed tail appended
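Also: lentivirally expressed fusions sorted by FACS into six bins by GFP to DsRed ratio, PSI derived from sequencing read proportions per bin multiplied by bin number.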

Protein stability index of substitutions, site by site:
A4: Y 3.51 | S 3.27 | Q 3.77 | W 2.62 | I 4.41 | H 3.71 | F 3.82 | L 4.25 | P 4.16 | N 4.08 | D 4.68 | E 4.58 | K 3.71 | V 3.9 | R 3.87 | C 2.52 | M 3.8 | T 4.39 | G 2.98
G5: D 4.67 | H 3.79 | W 1.66 | F 1.51 | P 4.07 | Y 1.82 | I 4.11 | A 2.44 | S 3.3 | L 3.19 | N 4.08 | M 3.01 | T 4.11 | V 3.96 | K 4.23 | E 4.17 | Q 4.19 | R 3.78 | C 2.75
Q6: D 4.37 | N 3.62 | F 2.5 | L 2.81 | W 1.47 | A 3.72 | P 4.23 | T 3.96 | Y 1.94 | S 3.65 | G 3.65 | I 2.72 | R 3.01 | C 2.42 | H 3.58 | E 4.16 | V 3.41 | M 2.8 | K 2.76
P2: L 3.41 | V 1.97 | Y 3.47 | F 3.33 | T 2.17 | W 3.65 | C 2.7 | E 4.71 | N 4.11 | Q 3.81 | H 2.26 | R 4.43 | K 4.27 | D 4.73 | I 2.89 | S 3.16 | A 3.46 | G 4.14 | M 3.93
S3: R 2.83 | N 3.08 | K 3.17 | M 3.43 | A 3.17 | Q 3.81 | F 3.03 | Y 2.34 | L 4.05 | P 3.63 | T 4 | C 2.61 | H 3.35 | I 4.35 | V 3.61 | E 3.93 | G 3.75 | D 4.27 | W 3.44
Q8: Y 1.71 | G 3.77 | R 3.47 | H 3.35 | W 1.89 | K 3.89 | F 1.48 | N 3.57 | E 4.04 | M 2.72 | P 3.38 | I 2.76 | L 2.11 | D 3.87 | A 4.04 | T 3.47 | C 3.23 | S 3.68 | V 3.31
A9: S 3.1 | N 3.83 | C 3.37 | R 3.47 | W 2.45 | P 3.53 | M 3.06 | D 4.02 | I 2.86 | K 3.52 | E 3.74 | G 3.13 | H 3.31 | F 2.02 | Q 4.06 | T 2.99 | V 2.93 | Y 2.13 | L 2.62
A10: F 2.22 | E 3.8 | Q 3.42 | P 3.25 | S 3.73 | W 2.24 | I 3.22 | C 2.75 | M 3.18 | G 3.72 | N 3.13 | R 3.05 | H 3.55 | L 3.18 | V 2.99 | Y 2.95 | D 3.69 | T 3.41 | K 2.87
A7: L 2.27 | T 3.49 | F 2.17 | P 3.51 | R 3.26 | Q 3.5 | N 3.94 | V 3.36 | K 3.49 | W 2.44 | I 3.15 | G 3.58 | H 3.55 | C 2.47 | E 3.94 | S 3.87 | D 3.98 | Y 1.65 | M 2.93
V11: M 3.36 | F 2.58 | D 3.68 | W 2.38 | T 3.58 | G 3.72 | R 4.12 | S 4.27 | Q 3.72 | C 3.1 | K 3.45 | I 3.25 | A 3.73 | H 3.74 | E 3.84 | Y 3 | L 3.07 | N 3.32 | P 3.62
F1: D 5.56 | Q 5.11 | A 5.04 | L 5.03 | S 5.11 | N 4.98 | C 4.68 | T 5.3 | I 4.79 | V 4.92 | E 4.98 | H 4.89 | R 5.18 | P 4.82 | M 4.96 | W 4.75 | G 4.88 | Y 3.29 | K 4.65
Q12: P 3.88 | C 3.51 | G 3.37 | A 3.13 | F 2.28 | R 3.1 | T 3.61 | D 3.69 | M 2.83 | L 2.67 | I 2.54 | N 3.41 | K 3.38 | E 3.18 | S 3.36 | H 3.18

Variants of: B2
Test: as above
Details: c terminus: a fixed tail appended

Protein stability index, by site and new letter:
M19: N 2.37 | L 2.82 | T 2.74 | F 1.9 | I 2.25 | S 2.83
K23: R 2.35 | N 2.42 | T 2.34
C12: I 2.6 | E 4.78 | F 3.44 | D 4.49 | P 4.01
G8: L 2.82 | I 2.76 | W 2.03
K15: N 2.99 | G 2.3 | S 1.96
A6: W 2.9 | Q 2.36 | Y 2.19 | D 2.9 | G 2.02
N17: Q 2.73 | I 2.44
K14: M 2.56 | Q 3.04 | F 2.23 | S 2.39 | G 2.29 | A 2.93 | W 3.05
D1: N 3.64 | G 2.22 | C 2.18 | I 2.16
Y16: N 3.04 | W 2.72 | F 2.68 | I 2.13 | Q 2.44 | R 3.4 | G 2.17
F7: R 1.92 | H 2.19 | V 2.43 | I 2.98
E11: Y 1.92 | T 1.9 | L 3.19
G13: M 1.82 | N 2.12 | L 3.01 | W 3.27
T18: G 3.07
L20: E 3.51 | V 2.7 | F 2.18 | W 2.73
Y22: I 2.8 | E 3.26 | W 2.9 | Q 2.72 | C 3.69
M5: P 2.2 | F 2.15 | W 2.35 | Y 2.33 | K 2.26
R24: E 4.57 | L 2.05 | H 3.66 | W 1.86 | M 2.78 | F 2.42 | C 2.58
C9: P 3.43 | V 4.21 | L 3.9
P2: E 2.04 | G 2.05 | Y 2.51 | D 2.54 | W 1.82 | Q 1.92
G21: Q 2.48 | W 1.95 | D 3.13
K4: H 2.35 | S 2.48 | Q 2.61 | A 2.35 | F 1.61 | C 2.45
N3: M 2.82 | H 2.61 | R 2.25 | I 2.19 | Y 2.14 | E 2.52 | W 2.23 | K 3.1
E10: W 3.11 | M 1.96 | R 1.64 | S 3.23 | H 2.11

Source: the supplement of paper PMC10567573
